Test results published in paper PMC8582585, “An HLA-A*11:01-Binding Neoantigen from Mutated NPM1 as Target for TCR Gene Therapy in AML” (Cancers, 2021).
Peptide text beside a SMILES is read from it.

Key:
HLA-A*11:01 (HLA-A11) = molecular target: T1, HLA-A*11:01 (HLA-A11) (Homo sapiens, UniProt P04439, A114D/D185E/E176A/F33Y/L180Q/S129P/T187R); experiment: Competition-based peptide-HLA class I binding assay, HLA-A11
T1 construct: soluble HLA molecules mixed with a fluorescein-labeled peptide; made in house; host or cells: Escherichia coli

HLA-A*03:01 (HLA-A3) = molecular target: T2, HLA-A*03:01 (HLA-A3) (Homo sapiens, UniProt P04439); experiment: Competition-based peptide-HLA class I binding assay, HLA-A3
T2 construct: soluble HLA molecules mixed with a fluorescein-labeled peptide; made in house; host or cells: Escherichia coli

HLA-A*02:01 (HLA-A2) = HLA-A*02:01 (HLA-A2) (Homo sapiens, UniProt P04439, D140Y/D185E/D98H/E176V/E277Q/G131W/G231S/I119V/I121R/I166T/I218V/L300P/L318F/N151K/N90K/P208A/P217A/Q86G/Q94H/R138H/R169H/T345S); details: cited from earlier work
Text: In this study, we investigated whether […] is also a neoantigen that can be targeted by TCR gene therapy. We isolated various T-cells for […] and cloned the TC ...

[1] = molecular target: soluble HLA-A*03:01 (heavy chain with β2M); experiment: competition-based peptide-HLA class I binding assay (gel-filtration HPLC with fluorescence detection); 25 pmol HLA heavy chain, 25 pmol β2M, 100 fmol KVFPC(Fl)ALINK and 10-fold serial dilutions of competitor peptide in 100 µL; 100 mM phosphate, 75 mM NaCl, 1 mM CHAPS, pH 7; 24 h at RT; IC50 = 50% reduction of the fluorescent pHLA-complex peak
[2] = molecular target: soluble HLA-A*11:01 (heavy chain with β2M); experiment: as above

**Q.** With `CC(C)C[C@H](NC(=O)[C@H](CO)NC(=O)[C@@H](NC(=O)[C@H](CCC(=O)O)NC(=O)[C@H](CCC(=O)O)NC(=O)[C@@H](NC(=O)[C@H](C)N)C(C)C)C(C)C)C(=O)N[C@@H](CCCNC(=N)N)C(=O)N[C@@H](CCCCN)C(=O)O` (H-AVEEVSLRK-OH) as the molecule, how does the IC50 (HLA-A*11:01 (HLA-A11)) read?
**A.** 50.9 nM

**Q.** And the IC50 (HLA-A*03:01 (HLA-A3))?
**A.** 1330 nM

**Q.** Which HLA-A2 binding (HLA-A*02:01 (HLA-A2)) does the source give for CLAVEEVSL here?
**A.** HLA-A*02:01 (HLA-A2)-binding

B1: dNPM1 … peptide (peptide)
peptide: AVEEVSLRK
**Q.** For B1, which IC50 [1] is on record?
**A.** 1330 nM

**Q.** What about the IC50 [2] of the same molecule?
**A.** 50.9 nM
